Measurements taken from US20230340054A1.

Target: IL-2 receptor on the cell surface (high and intermediate affinity receptors on human PBMC subsets)
Experiment: cell-based or functional assay

| Substance | pSTAT5α levels in CD4+ cells | pSTAT5α levels in CD8+ cells |
| --- | --- | --- |
| IgG fusion IL-2 mutein D20N | 2.23 | 1.5 |
| IgG fusion IL-2 mutein D20T | 1.46 | 1.7 |
| IgG fusion IL-2 mutein D84E | 1.61 | 0.957 |
| IgG fusion IL-2 mutein D84S | 1.2 | 1.05 |
| IgG fusion IL-2 mutein D84T | 1.21 | 0.96 |
| IgG fusion IL-2 mutein D109H | 1.01 | 1.1 |
| IgG fusion IL-2 mutein D109K | 1.77 | 1.32 |
| IgG fusion IL-2 mutein D109M | 1.28 | 0.906 |
| IgG fusion IL-2 mutein D109R | 1.77 | 1.27 |
| IgG fusion IL-2 mutein D109W | 1.53 | 1.05 |
| IgG fusion IL-2 mutein E15D | 1.09 | 1.01 |
| IgG fusion IL-2 mutein E15S | 1.66 | 0.932 |
| IgG fusion IL-2 mutein E15T | 3.06 | 1.79 |
| IgG fusion IL-2 mutein E61W | 1.3 | 1.18 |
| IgG fusion IL-2 mutein E68F | 2.19 | 0.946 |
| IgG fusion IL-2 mutein E68L | 2.01 | 1.16 |
| IgG fusion IL-2 mutein E68Q | 2 | 1.4 |
| IgG fusion IL-2 mutein E68R | 2.36 | 1.22 |
| IgG fusion IL-2 mutein E68W | 1.96 | 0.997 |
| IgG fusion IL-2 mutein E68Y | 2.6 | 1.28 |
| IgG fusion IL-2 mutein E95D | 1.62 | 1.02 |
| IgG fusion IL-2 mutein E95N | 0.981 | 1.05 |
| IgG fusion IL-2 mutein E95Q | 1.56 | 1.05 |

| Substance | pSTAT5α levels in CD4+ cells | pSTAT5α levels in CD8+ cells |
| --- | --- | --- |
| IgG fusion IL-2 mutein E95S | 1.47 | 1 |
| IgG fusion IL-2 mutein E95T | 1.64 | 1.02 |
| IgG fusion IL-2 mutein E106W | 1.02 | 1.18 |
| IgG fusion IL-2 mutein F42M | 1.98 | 1.18 |
| IgG fusion IL-2 mutein H16K | 1.05 | 1.09 |
| IgG fusion IL-2 mutein H16R | 1.4 | 1.63 |
| IgG fusion IL-2 mutein H16Y | 1.75 | 1.21 |
| IgG fusion IL-2 mutein I92F | 1.77 | 1.2 |
| IgG fusion IL-2 mutein I92V | 0.981 | 1.08 |
| IgG fusion IL-2 mutein I92W | 1.11 | 0.986 |
| IgG fusion IL-2 mutein I92Y | 1.94 | 1.12 |
| IgG fusion IL-2 mutein K35T | 2.39 | 1.19 |
| IgG fusion IL-2 mutein K43W | 1.24 | 1.16 |
| IgG fusion IL-2 mutein K48I | 0.944 | 0.868 |
| IgG fusion IL-2 mutein K48S | 2.23 | 1.16 |
| IgG fusion IL-2 mutein K48V | 1.12 | 1.18 |
| IgG fusion IL-2 mutein L12I | 2.35 | 1.59 |
| IgG fusion IL-2 mutein L12V | 1.64 | 1.03 |
| IgG fusion IL-2 mutein L12Y | 1.3 | 1.01 |
| IgG fusion IL-2 mutein L19F | 1.49 | 1.06 |
| IgG fusion IL-2 mutein L19I | 2.22 | 1.04 |
| IgG fusion IL-2 mutein L19V | 1.31 | 0.953 |
| IgG fusion IL-2 mutein L72F | 1.65 | 0.939 |

| Substance | pSTAT5α levels in CD4+ cells | pSTAT5α levels in CD8+ cells |
| --- | --- | --- |
| IgG fusion IL-2 mutein L72R | 1.6 | 0.93 |
| IgG fusion IL-2 mutein M23I | 1.83 | 1.16 |
| IgG fusion IL-2 mutein M23L | 1.91 | 1.05 |
| IgG fusion IL-2 mutein M104H | 1.01 | 0.989 |
| IgG fusion IL-2 mutein M104I | 1.25 | 0.851 |
| IgG fusion IL-2 mutein N71W | 1.58 | 1.02 |
| IgG fusion IL-2 mutein N88S | 1.2 | 1.04 |
| IgG fusion IL-2 mutein P34F | 2.85 | 1.88 |
| IgG fusion IL-2 mutein P34W | 1.89 | 1.1 |
| IgG fusion IL-2 mutein P34Y | 1.11 | 1.29 |
| IgG fusion IL-2 mutein P65E | 1.51 | 1.05 |
| IgG fusion IL-2 mutein P65K | 1.59 | 1.31 |
| IgG fusion IL-2 mutein P65N | 1.71 | 1.07 |
| IgG fusion IL-2 mutein P65Q | 1.6 | 1.13 |
| IgG fusion IL-2 mutein P65R | 1.67 | 1.15 |
| IgG fusion IL-2 mutein S87E | 1 | 0.825 |
| IgG fusion IL-2 mutein S87T | 2 | 1.07 |
| IgG fusion IL-2 mutein T111H | 1.9 | 1.14 |
| IgG fusion IL-2 mutein T111M | 1.74 | 1.23 |
| IgG fusion IL-2 mutein T111N | 1.64 | 1.08 |
| IgG fusion IL-2 mutein T111Q | 2.1 | 1.28 |
| IgG fusion IL-2 mutein T111S | 2.47 | 1.24 |
| IgG fusion IL-2 mutein T111W | 1.58 | 1.15 |
